Biological target: ZNF207 isoform C (human, UniProt O43670-4 1-494)
Experiment: EMSA; 100 ng protein, 3 ng probe, 1 ug poly(dI-dC), 10 mM MgCl2; 10 mM HEPES pH 7.5, 10 mM KCl, 10 mM MgCl2, 1 mM DTT, 1 mM EDTA, 10% glycerol, 1 ug poly(dI-dC) in 10 ul, 10 min at room temperature; 5% native PAGE in 0.5x TBE
Settings: protein: commercial; label: 5' biotin on sense strand; duplex of annealed sense and reverse strands

Chain of ZNF207 isoform C (O43670 other isoform, or with tags, fused parts or gaps): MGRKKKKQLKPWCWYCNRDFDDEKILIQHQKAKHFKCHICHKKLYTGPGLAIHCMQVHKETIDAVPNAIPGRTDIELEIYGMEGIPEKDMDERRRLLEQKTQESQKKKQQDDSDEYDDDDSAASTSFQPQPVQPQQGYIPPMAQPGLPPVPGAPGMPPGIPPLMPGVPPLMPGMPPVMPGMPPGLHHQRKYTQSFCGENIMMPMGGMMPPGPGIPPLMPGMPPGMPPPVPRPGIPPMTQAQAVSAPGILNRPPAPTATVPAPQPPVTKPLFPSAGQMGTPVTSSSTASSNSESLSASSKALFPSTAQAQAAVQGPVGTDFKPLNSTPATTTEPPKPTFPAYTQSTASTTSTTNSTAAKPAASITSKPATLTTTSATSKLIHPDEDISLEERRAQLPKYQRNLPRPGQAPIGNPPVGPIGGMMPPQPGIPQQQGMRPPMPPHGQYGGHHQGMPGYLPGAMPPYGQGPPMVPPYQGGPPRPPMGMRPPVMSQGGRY

Binder	binding result
ZNF207 motif MUT (dsDNA) DNA 1: TTTTAAACACGCGTGTGTTAG DNA 2: CTAACACACGCGTGTTTAAAA	no binding
ZNF207 motif WT (dsDNA) DNA 1: TTTGAAACACTCTTTTTGTAG DNA 2: CTACAAAAAGAGTGTTTCAAA	binds
